Experimental data from publication PMC12687424 (2025).
FAM = fluorescein label

Target: WT PKCβII catalytic domain (UniProt P05771-2 321-673, primed (phosphorylated) at the three PKC priming sites (T-loop, turn motif, hydrophobic motif))
Experiment: FP; representative curve

Sequence of WT PKCβII catalytic domain (P05771 other isoform, or with tags, fused parts or gaps): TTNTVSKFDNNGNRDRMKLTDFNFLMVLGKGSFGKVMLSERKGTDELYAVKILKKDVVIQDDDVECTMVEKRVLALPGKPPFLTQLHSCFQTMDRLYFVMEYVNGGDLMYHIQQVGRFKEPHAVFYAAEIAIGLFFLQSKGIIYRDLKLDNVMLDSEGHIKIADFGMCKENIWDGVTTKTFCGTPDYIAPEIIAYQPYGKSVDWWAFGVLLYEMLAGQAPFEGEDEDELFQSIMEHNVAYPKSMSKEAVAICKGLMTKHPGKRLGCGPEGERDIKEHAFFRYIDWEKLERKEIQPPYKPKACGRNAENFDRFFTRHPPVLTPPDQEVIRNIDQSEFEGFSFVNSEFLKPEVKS

Kd: 39 µM
B1: Fluorescein-PSS peptide (peptide)
peptide: {FAM}-ESTVRFARKGSLRQKNVH-NH2
